Measured values: US20160159910A1 (Genentech, published 2016)
One block for each binder: values may come before it.

Experiments:
[1] = target: T1, human B7-H4 S114A glycosylation mutant (human, UniProt Q7Z7D3 29-282); assay: FACS on 293 cells transfected with S114A human B7-H4 (glycosylation independence)
T1 construct: Full-length human B7-H4 membrane construct with S114 changed to alanine to prevent N-linked glycosylation at N112-S114; transiently expressed on 293 cells; also called mutated S114A human B7-H4; recombinant human B7-H4 S114A
T1 sequence: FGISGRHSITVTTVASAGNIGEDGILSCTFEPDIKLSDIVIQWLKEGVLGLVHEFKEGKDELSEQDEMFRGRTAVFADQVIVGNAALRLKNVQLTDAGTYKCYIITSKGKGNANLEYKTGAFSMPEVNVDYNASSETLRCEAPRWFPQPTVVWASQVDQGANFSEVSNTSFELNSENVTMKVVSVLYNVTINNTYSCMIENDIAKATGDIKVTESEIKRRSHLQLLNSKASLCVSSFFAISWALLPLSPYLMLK

mouse B7-H4 [2] = target: T2, mouse B7-H4 (mouse, UniProt Q7TSP5 29-283); assay: Scatchard analysis, 125I-antibody radioligand cell binding on stably transfected 293 cells
T2 construct: On stably transfected 293 cells; also called muB7-H4; recombinant mouse B7-H4
T2 sequence: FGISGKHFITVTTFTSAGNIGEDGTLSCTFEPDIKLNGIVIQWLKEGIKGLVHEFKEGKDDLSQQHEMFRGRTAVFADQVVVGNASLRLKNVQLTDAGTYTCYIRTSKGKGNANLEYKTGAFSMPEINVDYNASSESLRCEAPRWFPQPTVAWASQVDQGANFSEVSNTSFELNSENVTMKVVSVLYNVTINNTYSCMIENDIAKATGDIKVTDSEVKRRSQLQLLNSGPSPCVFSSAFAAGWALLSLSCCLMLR
Protocol: (§1) Competition assay mixtures of 50 μL volume containing a fixed concentration of [I¹²⁵] labeled antibody and decreasing concentrations of serially diluted, unlabeled antibody were placed into 96-well plates. […] Cells were detached from the flask using Sigma Cell Dissociation Solution and were washed with binding buffer, which consisted of Dulbecco's Modified Eagle Medium (DMEM) with 1% bovine serum albumin (BSA), […] and 0.1% sodium azide. The washed cells were added to the 96 well plates at a density of 100,000 cells in 0.2 mL of binding buffer. The final concentration of the [I¹²⁵] labeled antibody in each well was ˜250 pM. The final concentration of the unlabeled antibody in the competition assay ranged from 1000 nM through ten 2-fold dilution steps to a 0 nM buffer-only assay. Competition assays were carried out in triplicate. Competition assays were incubated for 2 hours at room temperature. After the 2-hour incubation, the competition assays were transferred to a Millipore Multiscreen filter plate (Billerica, Mass.) and washed 4 times with binding buffer to separate the free from bound [I¹²⁵] labeled antibody. The filters were counted on a Wallac Wizard 1470 gamma counter (PerkinElmer Life and Analytical Sciences Inc.; Wellesley, Mass.). The binding data was evaluated using NewLigand software (Genentech), which uses the fitting algorithm of Munson and Robard to determine the binding affinity of the antibody (Munson and Robard 1980).

human B7-H4 [3] = target: T3, human B7-H4 (human, UniProt Q7Z7D3 29-282); assay: as above
T3 construct: On stably transfected 293 cells (recombinant) or on MX-1 / SKBR3 tumor cells (endogenous); the cell is named under assay; also called huB7-H4; hB7-H4
T3 sequence: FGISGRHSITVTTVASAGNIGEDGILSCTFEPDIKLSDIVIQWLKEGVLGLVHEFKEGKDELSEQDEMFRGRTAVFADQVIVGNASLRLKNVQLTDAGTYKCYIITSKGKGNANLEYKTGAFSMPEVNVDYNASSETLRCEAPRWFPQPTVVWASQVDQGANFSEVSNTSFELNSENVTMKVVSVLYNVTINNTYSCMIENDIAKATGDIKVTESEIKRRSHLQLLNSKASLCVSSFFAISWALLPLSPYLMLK
Protocol: as §1

cynomolgus monkey B7-H4 [4] = target: T4, cynomolgus monkey B7-H4 (cynomolgus monkey, UniProt Q7Z7D3 29-282 (human entry)); assay: as above
T4 construct: On stably transfected 293 cells; also called cyno B7-H4; recombinant cynomolgus monkey B7-H4
T4 chain: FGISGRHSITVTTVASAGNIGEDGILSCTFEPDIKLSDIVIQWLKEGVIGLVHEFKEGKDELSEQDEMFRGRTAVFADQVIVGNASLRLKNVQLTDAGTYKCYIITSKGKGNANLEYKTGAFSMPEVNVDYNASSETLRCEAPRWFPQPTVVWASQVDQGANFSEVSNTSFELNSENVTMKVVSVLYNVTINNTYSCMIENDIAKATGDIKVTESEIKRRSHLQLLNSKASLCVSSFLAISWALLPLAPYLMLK
Protocol: as §1

rat B7-H4 [5] = target: T5, rat B7-H4 (rat, UniProt Q501W4 29-282); assay: as above
T5 construct: On stably transfected 293 cells; also called recombinant rat B7-H4
T5 sequence: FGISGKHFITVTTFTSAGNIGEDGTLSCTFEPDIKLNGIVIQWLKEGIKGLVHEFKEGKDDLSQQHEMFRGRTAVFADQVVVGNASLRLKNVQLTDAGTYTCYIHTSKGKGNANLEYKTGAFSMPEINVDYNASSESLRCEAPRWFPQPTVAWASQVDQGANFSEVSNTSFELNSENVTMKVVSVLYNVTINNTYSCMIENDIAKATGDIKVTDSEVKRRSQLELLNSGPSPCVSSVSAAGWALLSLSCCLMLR
Protocol: as §1

human B7-H4 [6] = target: T3, human B7-H4; assay: cell-based or functional assay
mouse B7-H4 [7] = target: T2, mouse B7-H4; assay: FACS titration on 293 cells expressing recombinant mouse B7-H4 (panel '293-mouse B7-H4', lower block), geometric mean fluorescence
Protocol: (§2) The fluorescent signal was acquired with a BD FACS Calibur and EC₅₀ values were determined with the Graph Pad program Prism 4.

mouse B7-H4 [8] = target: T2, mouse B7-H4; assay: Scatchard analysis, radioligand cell binding on 293 cells expressing recombinant B7-H4
Protocol: as §1

human B7-H4 [9] = target: T3, human B7-H4; assay: as above
Protocol: as §1

cynomolgus monkey B7-H4 [10] = target: T4, cynomolgus monkey B7-H4; assay: as above
Protocol: as §1

rat B7-H4 [11] = target: T5, rat B7-H4; assay: as above
Protocol: as §1

human B7-H4 [12] = target: T3, human B7-H4; assay: Scatchard analysis, radioligand cell binding on MX-1 cells (endogenous human B7-H4)
Protocol: as §1, with “After the 2-hour incubation, the competition assays were transferred to a Millipore Multiscreen filter plate (Billerica, Mass.) and washed 4 times with binding buffer to separate the free from bound [I¹²⁵] labeled antibody.” left out

human B7-H4 [13] = target: T3, human B7-H4; assay: Scatchard analysis, 125I-antibody radioligand cell binding on MX-1 tumor cells
Protocol: as §1

cynomolgus monkey B7-H4 [14] = target: T4, cynomolgus monkey B7-H4; assay: FACS titration on 293 cells expressing recombinant cynomolgus B7-H4 (panel '293-cyno B7-H4', lower block), geometric mean fluorescence
Protocol: as §2

human B7-H4 [15] = target: T3, human B7-H4; assay: FACS titration on MX-1 tumor cells, endogenous human B7-H4 (panel 'MX-1 tumor cell line', lower block), geometric mean fluorescence
Protocol: as §2

human B7-H4 [16] = target: T3, human B7-H4; assay: FACS titration on 293 cells expressing recombinant human B7-H4 (panel '293-human B7-H4', lower block), Dylight-650 goat anti-human IgG, geometric mean fluorescence
Protocol: as §2

B2: hu22C10v2.7-vc-MMAE (antibody)
heavy: not shown
light: DIQMTQSPSSLSASVGDRVTITCSATSSISYMHWYQQKPGKAPKGWIYDTSKLAHGVPSRFSGSGSGTDFTLTISSLQPEDFATYYCHQRRSYPFTFGQGTKVEIKRTVAAPSVFIFPPSDEQLKSGTASVVCLLNNFYPREAKVQWKVDNALQSGNSQESVTEQDSKDSTYSLSSTLTLSKADYEKHKVYACEVTHQGLSSPVTKSFNRGEC
modifications: MC-vc-PAB-MMAE conjugated to reduced cysteine residues of the antibody (sites not given); DAR ~3
EC50 of in vitro killing (CellTiter-Glo cell viability, 4 days) of 293 cells over-expressing recombinant human B7-H4 (human B7-H4 [6]): 0.0339 µg/mL

B3: hu22C10v2.7 IgG1 A118C-vc-MMAE (antibody)
heavy: not shown
light: DIQMTQSPSSLSASVGDRVTITCSATSSISYMHWYQQKPGKAPKGWIYDTSKLAHGVPSRFSGSGSGTDFTLTISSLQPEDFATYYCHQRRSYPFTFGQGTKVEIKRTVAAPSVFIFPPSDEQLKSGTASVVCLLNNFYPREAKVQWKVDNALQSGNSQESVTEQDSKDSTYSLSSTLTLSKADYEKHKVYACEVTHQGLSSPVTKSFNRGEC
modifications: MC-vc-PAB-MMAE on the engineered cysteine A118C (EU numbering); DAR ~2
EC50 of in vitro killing (CellTiter-Glo cell viability, 4 days) of 293 cells over-expressing recombinant human B7-H4 (human B7-H4 [6]): 0.0405 µg/mL

B4: hu1D11v1.9-varD-vc-MMAE (antibody)
heavy: not shown
light: DIQMTQSPSSLSASVGDRVTITCKASQGFNKYVAWYQQKPGKAPKLLIYYTSTLQPGVPSRFSGSGSGRDYTLTISSLQPEDFATYYCLQYGDLLYAFGQGTKVEIKRTVAAPSVFIFPPSDEQLKSGTASVVCLLNNFYPREAKVQWKVDNALQSGNSQESVTEQDSKDSTYSLSSTLTLSKADYEKHKVYACEVTHQGLSSPVTKSFNRGEC
modifications: MC-vc-PAB-MMAE conjugated to reduced cysteine residues of the antibody (sites not given); DAR ~3
EC50 of in vitro killing (CellTiter-Glo cell viability, 4 days) of 293 cells over-expressing recombinant human B7-H4 (human B7-H4 [6]): 0.0554 µg/mL

B5: hu1D11v1.9-varD IgG1 A118C-vc-MMAE (antibody)
heavy: not shown
light: DIQMTQSPSSLSASVGDRVTITCKASQGFNKYVAWYQQKPGKAPKLLIYYTSTLQPGVPSRFSGSGSGRDYTLTISSLQPEDFATYYCLQYGDLLYAFGQGTKVEIKRTVAAPSVFIFPPSDEQLKSGTASVVCLLNNFYPREAKVQWKVDNALQSGNSQESVTEQDSKDSTYSLSSTLTLSKADYEKHKVYACEVTHQGLSSPVTKSFNRGEC
modifications: MC-vc-PAB-MMAE on the engineered cysteine A118C (EU numbering); DAR ~2
EC50 of in vitro killing (CellTiter-Glo cell viability, 4 days) of 293 cells over-expressing recombinant human B7-H4 (human B7-H4 [6]): 0.0819 µg/mL

B9: ch1D11, slightly modified version with light chain C43G (antibody, V domains shown)
VH: QVQLQQSGAELVRPGTSVKMSCKASGYTFTSYWIGWAKQRPGHGFEWIGDIYPGGGYTNYNEKFKGKATLTADKSSSTAYMQFSSLTSEDSAIYYCARLDGSSYRGAMDSWGQGTSITVSS
VL: DIQMTQSPSSLSASLGGKVTITCKASQGFNKYVAWYQHKPGQGPRLLIHYTSTLQPGIPARFSGSGSGRDYSFSISNLEPEDSATYFCLQYGNLLYAFGGGTKLEIKR
notes: Human IgG1 / human kappa chimeric antibody; Dylight-488 or -650 labeled in the assay; also called ch1D11 (C43G)
fold binding over the isotype control [1]: 100 fold

The next lines start with the values.

fold binding over the isotype control [1]: 100 fold
Kd (mouse B7-H4 [2]): 13.7 nM
Kd (human B7-H4 [3]): 6.6 nM
Kd (cynomolgus monkey B7-H4 [4]): 5.2 nM
Kd (rat B7-H4 [5]): 4.7 nM
B1: chimeric antibody ch9B9 (antibody, human IgG1, V domains shown)
VH: QVQLQQSGAELMKPGASVKMSCKATGYTFSSYWIEWVKQRPGHGLEWIGEILPGTSITTYNAKFKVKATFTADTSSNTAYMQLSSLTSEDSAVYFCARYYFGSSSFYFDYWGQGTSLTVSS
VL: QAVVTQESALTTSPGDTVTLTCRSSTGAVTTSNYANWVQEKPDHLFTGLIGGTNNRVPGVPARFSGSLIGDKAALTITGAQTEDEAMYFCALWYNNHWVFGGGTKLE
notes: also called antibody 9B9

EC50 (mouse B7-H4 [7]): 0.36 µg/mL
B6: humanized 1D11.v1.9 (antibody, V domains shown)
VH: EVQLVQSGAEVKKPGASVKVSCKASGYTFTSYWIGWVRQAPGQGLEWIGDIYPGGGYTNYNEKFKGRVTITRDTSTSTAYLELSSLRSEDTAVYYCARLDGSSYRGAMDSWGQGTLVTVSS
VL: DIQMTQSPSSLSASVGDRVTITCKASQGFNKYVAWYQQKPGKAPKLLIYYTSTLQPGVPSRFSGSGSGRDYTLTISSLQPEDFATYYCLQYGNLLYAFGQGTKVEIKR
notes: also called hu1D11.v1.9; h1D11.v1.9

Kd (mouse B7-H4 [8]): 2.1 nM
Kd (human B7-H4 [9]): 0.9 nM
Kd (cynomolgus monkey B7-H4 [10]): 1 nM
Kd (rat B7-H4 [11]): 1.2 nM
Kd (human B7-H4 [12]): 2 nM
B7: hu1D11.v1.9 varC2 (antibody, V domains shown)
VH: EVQLVQSGAEVKKPGASVKVSCKASGYTFTSYWIGWVRQAPGQGLEWIGDIYPGGGYTNYNEKFKGRVTITRDTSTSTAYLELSSLRSEDTAVYYCARLAGSSYRGAMDSWGQGTLVTVSS
VL: DIQMTQSPSSLSASVGDRVTITCKASQGFNKYVAWYQQKPGKAPKLLIYYTSTLQPGVPSRFSGSGSGRDYTLTISSLQPEDFATYYCLQYGDLLYAFGQGTKVEIKR
notes: IgG1 / kappa; also called h1D11v1.9_VarC2; h1D11v1.9 variant C2

Kd (human B7-H4 [13]): 7.8 nM
Kd (mouse B7-H4 [2]): 9.4 nM
Kd (human B7-H4 [3]): 6.1 nM
Kd (cynomolgus monkey B7-H4 [4]): 4.1 nM
Kd (rat B7-H4 [5]): 4.1 nM
EC50 (cynomolgus monkey B7-H4 [14]): 0.66 µg/mL
EC50 (human B7-H4 [15]): 0.67 µg/mL
EC50 (human B7-H4 [16]): 0.96 µg/mL
EC50 (mouse B7-H4 [7]): 0.38 µg/mL
B8: chimeric antibody ch1D11 (antibody, human IgG1, V domains shown)
VH: QVQLQQSGAELVRPGTSVKMSCKASGYTFTSYWIGWAKQRPGHGFEWIGDIYPGGGYTNYNEKFKGKATLTADKSSSTAYMQFSSLTSEDSAIYYCARLDGSSYRGAMDSWGQGTSITVSS
VL: DIQMTQSPSSLSASLGGKVTITCKASQGFNKYVAWYQHKPGQCPRLLIHYTSTLQPGIPARFSGSGSGRDYSFSISNLEPEDSATYFCLQYGNLLYAFGGGTKLEIKR
notes: also called parental 1D11 antibody; antibody 1D11
